Data reported in patent US20040005324A1.

Target: purified RSV F glycoprotein (respiratory syncytial virus)
Assay: ELISA on purified F glycoprotein, control Fab
Conditions: scale: reciprocal dilution

Sequence of purified RSV F glycoprotein (respiratory syncytial virus) (P12568 26-109, chain 1 of 2): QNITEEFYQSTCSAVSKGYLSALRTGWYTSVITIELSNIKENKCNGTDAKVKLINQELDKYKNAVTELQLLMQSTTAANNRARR
Sequence of purified RSV F glycoprotein (respiratory syncytial virus) (P12568 137-574, chain 2 of 2): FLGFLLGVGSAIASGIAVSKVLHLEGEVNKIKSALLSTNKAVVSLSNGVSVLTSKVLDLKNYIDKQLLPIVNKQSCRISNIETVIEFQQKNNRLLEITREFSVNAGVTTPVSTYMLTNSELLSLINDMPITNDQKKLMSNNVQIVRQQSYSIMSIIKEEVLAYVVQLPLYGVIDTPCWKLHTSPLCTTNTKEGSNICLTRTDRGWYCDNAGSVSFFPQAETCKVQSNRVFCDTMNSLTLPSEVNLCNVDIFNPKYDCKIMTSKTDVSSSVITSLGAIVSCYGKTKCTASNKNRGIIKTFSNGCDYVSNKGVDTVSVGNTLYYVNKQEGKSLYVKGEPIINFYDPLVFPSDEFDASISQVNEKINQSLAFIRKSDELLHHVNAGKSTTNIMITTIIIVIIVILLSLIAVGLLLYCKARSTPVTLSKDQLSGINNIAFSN

In the case of hepatitis B Fab, the ELISA titer is reported as 2.
